Data from US20040121341A1 (RESEARCH FOUNDATION OF CITY UNIVERSITY OF NEW YORK, published 2004).

Biological target: Nogo receptor (NgR)
Assay: cell-based or functional assay

## AAARDTVQCLCVVKSNPEPSVAFELPSRNV [MAG peptide MAG(422-451)]
  neurite outgrowth of cerebellar neurons on MAG-expressing CHO cells, peptide at 15 uM (FIG. 4): 2 fold

## VAFELPSRNVTVNETEREFVYSERSGLLLT [MAG peptide MAG(442-471)]
  neurite outgrowth of cerebellar neurons on MAG-expressing CHO cells, peptide at 15 uM (FIG. 4): 2 fold
